Consider two molecules from publication doi:10.1101/2022.11.08.515461 (bioRxiv, 2022).

Usually stoichiometry N stands for a count of units in the complex or per binding partner.

Data set [1] deals with yeast dynein_(MOTOR) (wild-type; ZZ-TEV-dynein331-HALO) (budding yeast) (UniProt P36022). The data set is described as follows: mass photometry.
For data set [2], the target named is yeast dynein_(MOTOR)^MT-U (microtubule-unbound mutant of the motor domain) (budding yeast | T. thermophilus) (UniProt P34945). The data set is described as follows: mass photometry.
Sequence of yeast dynein_(MOTOR)^MT-U (microtubule-unbound mutant of the motor domain) (budding yeast | T. thermophilus) (P34945 whole entry, change not shown, the tested form may be a part): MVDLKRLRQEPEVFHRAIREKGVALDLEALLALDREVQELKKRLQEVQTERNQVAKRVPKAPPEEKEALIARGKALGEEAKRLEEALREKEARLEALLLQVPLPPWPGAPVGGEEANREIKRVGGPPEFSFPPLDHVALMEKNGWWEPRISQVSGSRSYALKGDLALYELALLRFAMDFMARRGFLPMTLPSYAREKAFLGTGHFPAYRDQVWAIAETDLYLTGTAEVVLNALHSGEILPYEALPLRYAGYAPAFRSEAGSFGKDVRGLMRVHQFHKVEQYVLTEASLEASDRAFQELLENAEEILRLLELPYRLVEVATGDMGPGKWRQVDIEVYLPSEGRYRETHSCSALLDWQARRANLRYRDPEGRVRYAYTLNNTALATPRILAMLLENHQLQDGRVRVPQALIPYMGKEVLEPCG
The data set “mass photometry” deals with the molecule itself. The data set is described as follows: mass photometry.
Data set [3] addresses human dynein_(MOTOR)^MT-B (microtubule-bound mutant of the motor domain) (human | T. thermophilus). Kind of data set: mass photometry.
Data set [4] deals with human dynein_(MOTOR)^MT-U (microtubule-unbound mutant of the motor domain) (human | T. thermophilus). Kind of data set: mass photometry.
Data set [5] shares this target. Kind of data set: cryo-EM structure.
For data set [6], the target named is human dynein_(MOTOR) (wild-type motor domain, residues 1458-4646) (human, UniProt Q14204 1458-4646). The data set is described as follows: mass photometry.

Sequence of yeast dynein_(MOTOR) (wild-type; ZZ-TEV-dynein331-HALO) (budding yeast) (P36022 whole entry, the tested form may be a part): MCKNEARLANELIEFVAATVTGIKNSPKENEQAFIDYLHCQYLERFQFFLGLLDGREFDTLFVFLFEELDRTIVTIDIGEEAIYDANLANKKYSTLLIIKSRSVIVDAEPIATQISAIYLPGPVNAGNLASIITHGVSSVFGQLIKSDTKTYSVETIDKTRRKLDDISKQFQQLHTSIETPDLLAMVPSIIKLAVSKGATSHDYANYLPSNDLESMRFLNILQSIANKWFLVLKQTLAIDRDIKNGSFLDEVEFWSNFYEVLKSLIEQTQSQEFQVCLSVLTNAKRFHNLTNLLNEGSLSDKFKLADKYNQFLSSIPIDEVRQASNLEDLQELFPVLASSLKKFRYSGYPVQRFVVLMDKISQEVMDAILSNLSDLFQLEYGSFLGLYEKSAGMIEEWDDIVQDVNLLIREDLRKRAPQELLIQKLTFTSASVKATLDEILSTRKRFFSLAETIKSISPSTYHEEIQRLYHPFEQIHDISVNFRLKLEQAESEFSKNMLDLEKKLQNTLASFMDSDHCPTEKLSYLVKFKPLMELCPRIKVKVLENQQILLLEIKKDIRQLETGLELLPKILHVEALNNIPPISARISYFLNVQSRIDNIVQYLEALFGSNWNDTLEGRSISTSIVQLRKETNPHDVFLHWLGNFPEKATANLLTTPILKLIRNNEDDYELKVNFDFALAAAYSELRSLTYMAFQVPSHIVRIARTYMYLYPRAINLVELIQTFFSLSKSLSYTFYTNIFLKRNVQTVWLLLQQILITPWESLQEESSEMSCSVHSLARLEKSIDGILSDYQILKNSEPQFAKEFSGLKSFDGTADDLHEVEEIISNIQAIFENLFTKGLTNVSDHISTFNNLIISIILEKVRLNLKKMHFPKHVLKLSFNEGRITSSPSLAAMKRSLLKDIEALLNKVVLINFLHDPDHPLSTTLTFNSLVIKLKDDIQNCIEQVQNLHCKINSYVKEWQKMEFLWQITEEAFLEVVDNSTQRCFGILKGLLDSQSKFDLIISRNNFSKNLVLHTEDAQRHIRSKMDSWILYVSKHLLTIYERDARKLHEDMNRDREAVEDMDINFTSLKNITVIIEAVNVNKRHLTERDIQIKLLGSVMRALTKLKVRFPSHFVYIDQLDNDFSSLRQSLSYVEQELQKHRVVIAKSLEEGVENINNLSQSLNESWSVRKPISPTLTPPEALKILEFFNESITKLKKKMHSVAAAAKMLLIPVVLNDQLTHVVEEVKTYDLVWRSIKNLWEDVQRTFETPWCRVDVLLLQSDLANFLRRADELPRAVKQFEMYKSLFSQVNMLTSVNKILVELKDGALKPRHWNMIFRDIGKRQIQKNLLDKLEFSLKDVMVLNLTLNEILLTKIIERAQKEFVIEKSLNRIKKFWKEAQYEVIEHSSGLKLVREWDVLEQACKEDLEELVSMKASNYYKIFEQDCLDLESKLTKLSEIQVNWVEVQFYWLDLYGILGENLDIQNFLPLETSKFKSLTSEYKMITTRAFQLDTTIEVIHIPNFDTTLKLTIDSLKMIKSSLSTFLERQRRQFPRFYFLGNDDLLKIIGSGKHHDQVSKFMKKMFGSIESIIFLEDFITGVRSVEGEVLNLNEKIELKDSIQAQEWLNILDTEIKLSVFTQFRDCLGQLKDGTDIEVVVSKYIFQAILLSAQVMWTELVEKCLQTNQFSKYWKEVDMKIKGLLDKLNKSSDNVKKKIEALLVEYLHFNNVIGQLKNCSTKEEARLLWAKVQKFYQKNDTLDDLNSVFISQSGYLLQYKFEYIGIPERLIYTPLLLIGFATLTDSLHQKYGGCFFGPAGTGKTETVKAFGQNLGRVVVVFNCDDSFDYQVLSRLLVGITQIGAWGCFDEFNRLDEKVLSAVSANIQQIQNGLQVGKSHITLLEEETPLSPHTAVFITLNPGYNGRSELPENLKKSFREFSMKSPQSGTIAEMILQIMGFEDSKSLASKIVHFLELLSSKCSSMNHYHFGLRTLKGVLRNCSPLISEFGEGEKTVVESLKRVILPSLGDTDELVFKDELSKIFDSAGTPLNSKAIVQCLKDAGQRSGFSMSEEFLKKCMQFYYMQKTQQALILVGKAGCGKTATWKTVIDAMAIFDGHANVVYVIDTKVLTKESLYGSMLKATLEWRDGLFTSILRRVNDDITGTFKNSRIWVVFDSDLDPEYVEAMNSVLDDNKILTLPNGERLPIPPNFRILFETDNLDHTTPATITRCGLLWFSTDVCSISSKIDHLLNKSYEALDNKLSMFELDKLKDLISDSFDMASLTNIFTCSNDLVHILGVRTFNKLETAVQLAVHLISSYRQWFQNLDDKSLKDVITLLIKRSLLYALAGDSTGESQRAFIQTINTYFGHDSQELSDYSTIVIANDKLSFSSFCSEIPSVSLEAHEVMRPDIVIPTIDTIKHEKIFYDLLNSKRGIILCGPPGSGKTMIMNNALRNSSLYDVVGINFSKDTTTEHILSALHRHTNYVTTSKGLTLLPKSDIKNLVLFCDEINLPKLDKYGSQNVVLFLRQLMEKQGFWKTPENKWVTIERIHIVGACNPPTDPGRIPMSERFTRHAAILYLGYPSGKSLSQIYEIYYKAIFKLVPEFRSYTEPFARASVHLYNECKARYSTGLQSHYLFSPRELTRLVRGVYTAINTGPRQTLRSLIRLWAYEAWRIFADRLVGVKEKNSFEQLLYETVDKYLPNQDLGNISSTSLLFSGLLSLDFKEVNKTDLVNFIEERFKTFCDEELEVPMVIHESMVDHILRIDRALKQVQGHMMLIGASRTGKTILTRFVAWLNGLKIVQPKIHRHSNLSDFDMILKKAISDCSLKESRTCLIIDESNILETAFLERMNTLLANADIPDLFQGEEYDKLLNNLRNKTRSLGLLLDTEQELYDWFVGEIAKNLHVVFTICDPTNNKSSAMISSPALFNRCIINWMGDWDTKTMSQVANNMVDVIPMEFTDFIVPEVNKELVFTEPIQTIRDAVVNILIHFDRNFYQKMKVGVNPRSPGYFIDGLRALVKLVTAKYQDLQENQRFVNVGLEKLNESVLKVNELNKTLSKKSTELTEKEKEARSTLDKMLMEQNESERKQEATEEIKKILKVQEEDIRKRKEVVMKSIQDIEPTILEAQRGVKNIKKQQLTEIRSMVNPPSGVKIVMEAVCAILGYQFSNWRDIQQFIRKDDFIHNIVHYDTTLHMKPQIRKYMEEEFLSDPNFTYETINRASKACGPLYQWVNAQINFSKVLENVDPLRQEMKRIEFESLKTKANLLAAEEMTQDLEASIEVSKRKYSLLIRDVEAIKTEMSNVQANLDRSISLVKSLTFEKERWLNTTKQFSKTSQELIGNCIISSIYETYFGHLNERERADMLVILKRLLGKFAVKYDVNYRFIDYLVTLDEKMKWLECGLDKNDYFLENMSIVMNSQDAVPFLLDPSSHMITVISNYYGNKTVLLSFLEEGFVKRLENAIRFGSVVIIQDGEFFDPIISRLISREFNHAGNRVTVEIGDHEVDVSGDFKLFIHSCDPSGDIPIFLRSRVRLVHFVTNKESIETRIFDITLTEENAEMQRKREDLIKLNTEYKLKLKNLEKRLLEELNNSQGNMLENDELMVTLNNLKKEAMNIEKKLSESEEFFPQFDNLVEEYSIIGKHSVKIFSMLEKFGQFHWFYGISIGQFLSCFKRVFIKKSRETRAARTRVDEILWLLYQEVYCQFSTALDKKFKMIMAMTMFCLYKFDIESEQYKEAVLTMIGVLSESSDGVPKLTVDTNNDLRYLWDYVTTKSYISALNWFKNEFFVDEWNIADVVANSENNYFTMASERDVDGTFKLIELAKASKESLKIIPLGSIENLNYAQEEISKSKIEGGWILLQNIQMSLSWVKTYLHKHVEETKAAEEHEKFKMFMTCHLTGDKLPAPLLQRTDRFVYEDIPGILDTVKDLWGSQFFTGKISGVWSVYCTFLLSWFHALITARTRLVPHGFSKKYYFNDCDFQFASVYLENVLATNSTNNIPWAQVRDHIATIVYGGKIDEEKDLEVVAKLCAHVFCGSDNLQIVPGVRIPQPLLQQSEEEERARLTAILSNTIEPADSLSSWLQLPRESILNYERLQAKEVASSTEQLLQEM

B1: Pac1-SNAP (natural protein)
chain: MTNWQQQLPLTDTQKNELDKSVLRYLNWNYKQTVRHEHAQDYESVRHAIVTLSGFLLQESVDRQEFISNNDTSNESMVDIDELLLPKKWNSIVRLQKKIIELEQNTETLVSQIKDLNTQVSELAQFKPTTSNGTSAHNVLKWIPRNLPSCLINVESSVTSVKLHPNLPIVFVATDHGKLYAFDLFNYTIPLASLQSHTKAITSMDVLFTNYTNSSKKNYLVIVTASKDLQIHVFKWVSEECKFQQIRSLLGHEHIVSAVKIWQKNNDVHIASCSRDQTVKIWDFHNGWSLKTFQPHSQWVRSIDVLGDYIISGSHDTTLRLTHWPSGNGLSVGTGHEFPIEKVKFIHFIEDSPEIRFRTPSTDRYKNWGMQYCVSASRDRTIKIWEIPLPTLMAHRAPIPNPTDSNFRCVLTLKGHLSWVRDISIRGQYLFSCADDKSVRCWDLNTGQCLHVWEKLHTGFVNCLDLDVDFDSNVTPRQMMVTGGLDCKSNVFMR
modifications: JF646-SNAP-tag ligand on the SNAP tag (fluorescent labelling)
B1: the N of the second species (∼890 kDa) (dynein monomers per Pac1 dimer) in data set [1] was 2. In data set [2], this molecule returned a stoichiometry N (Pac1 dimer per dynein (MOTOR) monomer) of 1. In addition, in the data set “mass photometry”, the “stoichiometry N” value stood at 2.

B2: human LIS1-SNAP (from pFastBac:8His-ZZ-TEV-LIS1-SNAPf) (natural protein)
chain: MVLSQRQRDELNRAIADYLRSNGYEEAYSVFKKEAELDVNEELDKKYAGLLEKKWTSVIRLQKKVMELESKLNEAKEEFTSGGPLGQKRDPKEWIPRPPEKYALSGHRSPVTRVIFHPVFSVMVSASEDATIKVWDYETGDFERTLKGHTDSVQDISFDHSGKLLASCSADMTIKLWDFQGFECIRTMHGHDHNVSSVAIMPNGDHIVSASRDKTIKMWEVQTGYCVKTFTGHREWVRMVRPNQDGTLIASCSNDQTVRVWVVATKECKAELREHEHVVECISWAPESSYSSISEATGSETKKSGKPGPFLLSGSRDKTIKMWDVSTGMCLMTLVGHDNWVRGVLFHSGGKFILSCADDKTLRVWDYKNKRCMKTLNAHEHFVTSLDFHKTAPYVVTGSVDQTVKVWECR
With B2, in data set [3], the stoichiometry N (LIS1 dimer per dynein (MOTOR) monomer) came out at 1. In addition, in data set [4], the fold LIS1-binding affinity against dynein (MOTOR)^MT-B worked out at 2 fold and the stoichiometry N (LIS1 dimer per dynein (MOTOR) monomer) came out at 1. In data set [5], this molecule had a percent of particles with 1 LIS1 bound (3D classification) of 36.2%, a percent of particles with 2 LIS1 bound (3D classification) of 29.3% and a percent of particles with “1.5” LIS1 bound (3D classification) of 34.4%. Besides, the stoichiometry N in data set [5] (scale: LIS1 WD40 beta-propellers per dynein motor) is 2. In data set [6], the binding result is listed as “binds”.
